Consider four molecules from patent US11873496B2, “Methods of altering gene expression by perturbing transcription factor multimers that structure regulatory loops” (Whitehead Institute for Biomedical Research, priority 2017, dated 2024).

The target in data set [1] is T1, AID-tagged CTCF protein (UniProt P93830+Q61164+Q7XVM8).
T1 construct: The AID tag was knocked-in at the endogenous Ctcf gene locus
Conditions: washout; cited from earlier work.

The target of data set [2] is T2, AID-tagged CTCF protein (UniProt Q61164).
T2 construct: The AID tag was knocked-in at the endogenous Ctcf gene locus
The note with it: AID tag knocked-in at endogenous Ctcf locus; cited from earlier work.

The target of data set [3] is T3, FLAG-tagged YY1 and HA-tagged YY1 (Homo sapiens, UniProt P25490).
T3 construct: expressed in transfected cells; host or cells: V6.5 mESCs, transient transfection, nuclear extract
The data set is described as follows: Co-immunoprecipitation of FLAG-tagged and HA-tagged YY1 from nuclear extracts. Format: binding, mouse. Conditions: nuclear extract treated prior to immunoprecipitation. As to the method:
V6.5 mESCs were transfected with pcDNA3 FLAG YY1 and pcDNA3 […] using Lipofectamine 3000 (Life Technologies #L3000001) according to the manufacturer's instructions. Briefly, cells were split and 8 million cells were plated onto a gelatinized 15 cm plate. 7.5 μg of each plasmid was mixed with 30 μL P3000 reagent and 75 μL Lipofectamine 3000 reagent (Life Technologies #L3000001) in 1250 μL of DMEM (Life technologies #11995-073). After ˜12-16 hours media was changed.
Cells were harvested 48 hours after transfection by washing twice with ice-cold PBS and collected by scraping in ice-cold PBS. Harvested cells were centrifuged at 1,000 rcf for 3 minutes to pellet cells. Supernatant was discarded and cell pellets were flash frozen and stored at −80° C. until ready to prepare nuclear extract. For each 15 cm plate of cells, frozen cell pellets were resuspended in 5 mL of ice-cold hypotonic lysis buffer (20 mM HEPES-KOH pH 7.5, 20% glycerol, 10 mM NaCl, 0.1% Triton X-100, 1.5 mM MgCl2, 0.5 mM DTT and protease inhibitor (Roche, 11697498001)) and incubated on ice for 10 minutes to extract nuclei. Nuclei were pelleted by centrifugation at 14,000 rcf for 10 minutes at 4° C. […] Protein concentration of extracts was quantified by BCA assay (Thermo Scientific, 23225) and protein concentration was adjusted to 400 μg/mL by addition of appropriate volume of 1:2 nuclear extraction buffer:dilution buffer. […]

The target of data set [4] is T4, YY1 (Homo sapiens, UniProt P25490 P25490:1-414). The data set is described as follows: EMSA; 20 fmol probe, 2 ug YY1, 5 mM MgCl2, 0.1 mM ZnCl2, poly dIdC, RT; abolished by 200-fold cold competitor. Conditions: label: 5' biotin. As to the method:
To generate the biotin labeled probe, 30-nucleotide-long 5' biotinylated single stranded oligonucleotides (IDT) were annealed in 10 mM Tris pH 7.5, 50 mM NaCl, and 1 mM EDTA at a 50 uM concentration. The same protocol was used to generate the cold competitor. The probe was serially diluted to a concentration of 10 fmol/4 and cold competitor to a concentration of 2 pmol/µL. 2 µL of diluted probe and cold competitor were used for each binding reaction for a final amount of 20 fmol labeled probe and 4 pmol cold competitor (200 fold excess) in each reaction.
Binding reactions were set-up in a 20 µL volume containing 1× Binding Buffer (10 mM Tris, 50 mM KCl, 1 mM DTT; pH 7.5), 2.5% Glycerol, 5 mM MgCl2, 50 ng/4 Poly dl dC, 0.05% Np-40, 0.1 mM ZnCl2, 10 mM Hepes, and 2 ug of recombinant YY1 protein. Binding reactions were pre-incubated for 20 mins at room temperature with or without the cold competitor. Labeled probe was then added to binding reactions and incubated for 80 minutes at room temperature. […] The DNA was then crosslinked to the membrane by placing the membrane on a Dark Reader Transilluminator for 15 mins. The membrane was allowed to air dry at room temperature overnight and chemiluminescence detected the following day. […]
A general note: A gel shift assay detects complexes by their altered migration in electrophoresis.

In data set [5] the target is T4, YY1. The data set is described as follows: competition; 100 nM competitor abrogated YY1-enhanced circularization of template, 20 C. As to the method: Reactions were incubated at 20° C. for 20 minutes to allow binding of YY1 to the DNA. For each timepoint 6 µL of the reaction was withdrawn and quenched in a total volume of 9 µL with a final concentration of 30 mM EDTA, 1×NEB loading dye (NEB, B7024S), 1 ug/µL of proteinase K, and heated at 65° C. for 5 minutes. Timepoint 0 was taken and then 600 units of T4 DNA ligase (NEB M0202) was added and the reaction was carried out at 20° C. Indicated timepoints were taken and then samples were run on a 4-20% TBE gradient gel for three hours at 120 V. The gel was stained with SYBR Gold (Life Technologies S11494) and imaged with a CCD camera.

T4 sequence (P25490 whole entry, one chain of several): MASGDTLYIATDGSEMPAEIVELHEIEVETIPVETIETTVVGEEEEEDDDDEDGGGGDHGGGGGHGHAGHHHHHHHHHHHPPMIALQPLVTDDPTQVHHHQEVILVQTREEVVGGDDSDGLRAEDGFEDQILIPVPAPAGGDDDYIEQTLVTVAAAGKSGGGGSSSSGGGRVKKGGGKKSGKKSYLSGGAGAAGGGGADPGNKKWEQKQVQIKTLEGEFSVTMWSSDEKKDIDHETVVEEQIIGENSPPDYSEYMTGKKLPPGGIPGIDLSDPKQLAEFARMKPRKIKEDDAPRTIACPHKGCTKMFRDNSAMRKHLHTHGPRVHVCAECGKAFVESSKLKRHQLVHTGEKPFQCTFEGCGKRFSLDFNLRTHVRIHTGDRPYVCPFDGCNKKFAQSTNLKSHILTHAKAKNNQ
T3 sequence (P25490 whole entry): as the sequence (P25490 whole entry, one chain of several) above
T3 sequence (P25490 whole entry): as the sequence (P25490 whole entry, one chain of several) above
T2 sequence (Q61164+P93830 fused): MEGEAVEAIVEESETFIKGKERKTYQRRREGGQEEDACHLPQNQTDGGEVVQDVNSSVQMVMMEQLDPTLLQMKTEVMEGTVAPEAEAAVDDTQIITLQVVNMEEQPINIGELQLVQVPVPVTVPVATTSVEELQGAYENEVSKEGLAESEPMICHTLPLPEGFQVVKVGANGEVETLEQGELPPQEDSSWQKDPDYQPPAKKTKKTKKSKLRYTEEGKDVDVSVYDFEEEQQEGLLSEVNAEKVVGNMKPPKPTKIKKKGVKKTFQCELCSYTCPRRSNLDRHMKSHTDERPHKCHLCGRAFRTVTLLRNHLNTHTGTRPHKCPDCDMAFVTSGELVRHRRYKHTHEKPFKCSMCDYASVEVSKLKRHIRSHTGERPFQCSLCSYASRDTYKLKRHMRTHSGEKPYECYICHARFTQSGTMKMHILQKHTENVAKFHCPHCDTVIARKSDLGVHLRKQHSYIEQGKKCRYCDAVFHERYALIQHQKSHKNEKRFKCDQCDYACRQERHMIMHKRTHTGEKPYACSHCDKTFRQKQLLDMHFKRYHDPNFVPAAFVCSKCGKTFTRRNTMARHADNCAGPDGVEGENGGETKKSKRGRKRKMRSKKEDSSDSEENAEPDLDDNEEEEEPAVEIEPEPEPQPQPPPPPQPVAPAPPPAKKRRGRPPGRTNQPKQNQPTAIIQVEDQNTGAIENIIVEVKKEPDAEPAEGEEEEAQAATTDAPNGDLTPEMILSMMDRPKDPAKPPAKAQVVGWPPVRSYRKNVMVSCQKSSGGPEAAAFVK
T2 sequence (Q7XVM8 whole entry, further chain): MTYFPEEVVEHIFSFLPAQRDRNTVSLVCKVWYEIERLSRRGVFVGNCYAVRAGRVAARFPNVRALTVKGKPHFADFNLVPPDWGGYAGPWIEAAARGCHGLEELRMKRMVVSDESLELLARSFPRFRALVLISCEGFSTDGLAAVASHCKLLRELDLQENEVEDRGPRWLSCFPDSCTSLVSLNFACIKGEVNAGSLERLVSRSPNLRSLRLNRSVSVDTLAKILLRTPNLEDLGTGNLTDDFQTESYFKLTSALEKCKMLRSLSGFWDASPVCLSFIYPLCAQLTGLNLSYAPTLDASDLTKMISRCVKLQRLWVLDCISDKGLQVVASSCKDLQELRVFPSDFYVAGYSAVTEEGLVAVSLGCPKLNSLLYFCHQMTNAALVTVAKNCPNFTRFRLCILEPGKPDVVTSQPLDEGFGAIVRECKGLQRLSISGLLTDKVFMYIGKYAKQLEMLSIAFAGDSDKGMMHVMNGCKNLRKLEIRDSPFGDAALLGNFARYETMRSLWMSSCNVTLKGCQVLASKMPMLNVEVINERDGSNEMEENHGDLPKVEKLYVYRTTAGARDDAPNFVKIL
T2 sequence (Q9WTX5 whole entry partner): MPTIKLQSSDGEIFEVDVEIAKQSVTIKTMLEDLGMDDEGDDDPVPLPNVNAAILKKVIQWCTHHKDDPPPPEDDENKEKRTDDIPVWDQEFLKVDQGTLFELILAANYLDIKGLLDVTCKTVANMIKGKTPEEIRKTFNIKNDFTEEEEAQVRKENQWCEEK
T1 sequence (Q61164+P93830 fused): as the sequence (Q61164+P93830 fused) above
T1 sequence (Q7XVM8 whole entry): as the sequence (Q7XVM8 whole entry, further chain) above
T1 sequence (Q9WTX5 whole entry partner): as the sequence (Q9WTX5 whole entry partner) above

Regarding `O=C(O)Cc1c[nH]c2ccccc12` [auxin], the “washout time allowing recovery of CTCF protein” value in data set [1] is reported as 2 days. Besides, the CTCF protein degradation entry in data set [2] was “proteasome-mediated degradation”.

B1: RNase A: RNase A (Sigma, R4642) used to treat nuclear extract (protein, UniProt P61823 27-150, looked up)
Ribonuclease pancreatic: KETAAAKFERQHMDSSTSAASSSNYCNQMMKSRNLTKDRCKPVNTFVHESLADVQAVCSQKNVACKNGQTNCYQSYSTMSITDCRETGSSKYPNCAYKTTQANKHIIVACEGNPYVPVHFDASV
B1: the “reduction in the amount of co-immunoprecipitated YY1 partner protein” value in data set [3] is recorded as roughly 60%.

B2: YY1 EMSA probe (dsDNA)
DNA 1: TCGCTCCCCGGCCATCTTGGCGGCTGGTGT
DNA 2: ACACCAGCCGCCAAGATGGCCGGGGAGCGA
As to B2, the binding result in data set [4] is recorded as “binds”.

B3: competitor DNA with YY1 consensus sites (dsDNA)
DNA 1: GAGCAACAACAACAACGAACCGGTTCGACCTCCCCGGCCATCTTTCGACCTCCCCGGCCATCTTTCGACCTCCCCGGCCATCTTTCGACCTCCCCGGCCATCTTTCGACCTCCCCGGCCATCTTTCGACCTCCCCGGCCATCTTTCGACCTCCCCGGCCATCTTTCGACCTCCCGTCGACAGAGGCAGCAAAAGCCAGA
DNA 2: TCTGGCTTTTGCTGCCTCTGTCGACGGGAGGTCGAAAGATGGCCGGGGAGGTCGAAAGATGGCCGGGGAGGTCGAAAGATGGCCGGGGAGGTCGAAAGATGGCCGGGGAGGTCGAAAGATGGCCGGGGAGGTCGAAAGATGGCCGGGGAGGTCGAAAGATGGCCGGGGAGGTCGAACCGGTTCGTTGTTGTTGTTGCTC
For B3, the binding result in data set [5] was “binds”.
